This note sets out measurements from paper PMC3689846 (Science (New York, N.Y.), 2013).

The assay deals with eOD-GT6 (germline-targeting engineered outer domain of gp120) (HIV-1 isolate HXB2, engineered outer …). The assay can be described thus: SPR. In general terms: SPR reads the build-up and loss of mass on a sensor chip optically.

B1: NIH45-46 (mature) (antibody, V domains shown)
VH: QVRLSQSGGQMKKPGESMRLSCRASGYEFLNCPINWIRLAPGRRPEWMGWLKPRGGAVNYARKFQGRVTMTRDVYSDTAFLELRSLTSDDTAVYFCTRGKYCTARDYYNWDFEHWGRGAPVTVSS
VL: EIVLTQSPATLSLSPGETAIISCRTSQSGSLAWYQQRPGQAPRLVIYSGSTRAAGIPDRFSGSRWGADYNLSISNLESGDFGVYYCQQYEFFGQGTKVQVD
As usually defined, the Kd is the constant that tells how readily two partners part at equilibrium. Lower therefore signals a tighter complex. B1 showed a Kd of 4 nM.
